Target: ribosomal binding factor A (RbfA) from Staphylococcus aureus, histidine tag at the N-terminus (S. aureus, UniProt A5ISF4 1-116)
Experiment: cryo-EM structure; 30S-RbfA complex reconstituted by mixing mature S. aureus 30S subunits and recombinant RbfA (1:30); overall resolution 2.9 Å
Details: both partners purified

B1: ribosomal protein S7 of the S. aureus 30S subunit (natural protein)
chain: MPRKGSVPKRDVLPDPIHNSKLVTKLINKIMLDGKRGTAQRILYSAFDLVEQRSGRDALEVFEEAINNIMPVLEVKARRVGGSNYQVPVEVRPERRTTLGLRWLVNYARLRGEKTMEDRLANEILDAANNTGGAVKKREDTHKMAEANKAFAHYRW
notes: 30S ribosomal protein S7, S. aureus RN6390; model built from the published S. aureus 30S (PDB 5ND8); Stood in the assay as part of the whole 30S subunit (16S rRNA and the other small subunit proteins; S21 and S1 not seen in the density); also called S7 head protein; source: endogenous, within 30S subunits obtained by dissociation of 70S ribosomes purified from S. aureus RN6390
  binding result: binds

— PMC9917171, “Yet Another Similarity between Mitochondrial and Bacterial Ribosomal Small Subunit Biogenesis Obtained by Structural Characterization of RbfA from S. aureus” (International Journal of Molecular Sciences, 2023)
